Publication PMC6002036, “Characterization of a non-nudix pyrophosphatase points to interplay between flavin and NAD(H) homeostasis in Saccharomyces cerevisiae” (PLoS ONE, 2018)

How the values were obtained:
[1] = substrate: Cc1cc2nc3c(=O)[nH]c(=O)nc-3n(C[C@H](O)[C@H](O)[C@H](O)COP(=O)(O)OP(=O)(O)OC[C@H]3O[C@@H](n4cnc5c(N)ncnc54)[C@H](O)[C@@H]3O)c2cc1C; test: HPLC fluorescence of FMN product, Michaelis-Menten fit; type: biochemical, Saccharomyces cerevisiae; conditions: 4 mM CoCl2, 200 mM KCl, 100 mM Hepes-KOH pH 7.0, 30 °C
Text: HPLC fluorescence of FMN product, Michaelis-Menten fit on Fpy1p

[2] = molecular target: the molecule itself; test: SEC; gel filtration on Superdex 200 10/300 in 50 mM potassium phosphate pH 7.5, 150 mM KCl, 100 mM L-arginine HCl, 0.1% Tween-20, 1 mM THP; calibrated with standards of 12.4-200 kDa; Fpy1p detected in fractions by enzymatic assay

B1: Fpy1p (protein encoded by YMR178w), recombinant with V5 epitope and 6xHis tag (enzyme, S. cerevisiae, UniProt Q03219 1-274, looked up)
chain: MVKVTAACIIIGDEVLNGKVVDTNSTFFAKYCFDHGIQLKEIATIGDDETQIVDTVRRLVKNYDFIISTGGIGPTHDDITYECMAKSFNLPCELDEECKERMRHKSDPEARLDADALKAHYQMATMPKGTNVKNYYVCDDLWVPICSISHKMYILPGIPQLFARMLKAFTPTLKKIYNLDKDPREYVRYFVRTHLTESQISKELKLIQDESTKVSEAIKIGSYPHFGMGFNTVSILGEKKDDSYLKSIVNRVVNNLEGEVISSELENKFSNQES
notes: Fpy1p, the pyrophosphatase encoded by ORF YMR178w of S. cerevisiae; whole open reading frame without the stop codon, amplified from the start codon; also called YMR178wp; source: S. cerevisiae strain Y258 (pYES-DEST52, galactose induction), purified (two-step IMAC: Cu2+ then Ni2+)
Protein B1 has a Km [1] of 16.1 ± 2.1 µM, a kcat [1] of 0.38 s⁻¹ and a kcat/Km [1] of 23000 M⁻¹ s⁻¹. For the same protein, the “stoichiometry N” value [2] was 3.
